According to publication doi:10.1101/212704 (bioRxiv, 2017):

T1: His-tagged MPS1 (UniProt P33981 1-857)
T1 sequence (looked up): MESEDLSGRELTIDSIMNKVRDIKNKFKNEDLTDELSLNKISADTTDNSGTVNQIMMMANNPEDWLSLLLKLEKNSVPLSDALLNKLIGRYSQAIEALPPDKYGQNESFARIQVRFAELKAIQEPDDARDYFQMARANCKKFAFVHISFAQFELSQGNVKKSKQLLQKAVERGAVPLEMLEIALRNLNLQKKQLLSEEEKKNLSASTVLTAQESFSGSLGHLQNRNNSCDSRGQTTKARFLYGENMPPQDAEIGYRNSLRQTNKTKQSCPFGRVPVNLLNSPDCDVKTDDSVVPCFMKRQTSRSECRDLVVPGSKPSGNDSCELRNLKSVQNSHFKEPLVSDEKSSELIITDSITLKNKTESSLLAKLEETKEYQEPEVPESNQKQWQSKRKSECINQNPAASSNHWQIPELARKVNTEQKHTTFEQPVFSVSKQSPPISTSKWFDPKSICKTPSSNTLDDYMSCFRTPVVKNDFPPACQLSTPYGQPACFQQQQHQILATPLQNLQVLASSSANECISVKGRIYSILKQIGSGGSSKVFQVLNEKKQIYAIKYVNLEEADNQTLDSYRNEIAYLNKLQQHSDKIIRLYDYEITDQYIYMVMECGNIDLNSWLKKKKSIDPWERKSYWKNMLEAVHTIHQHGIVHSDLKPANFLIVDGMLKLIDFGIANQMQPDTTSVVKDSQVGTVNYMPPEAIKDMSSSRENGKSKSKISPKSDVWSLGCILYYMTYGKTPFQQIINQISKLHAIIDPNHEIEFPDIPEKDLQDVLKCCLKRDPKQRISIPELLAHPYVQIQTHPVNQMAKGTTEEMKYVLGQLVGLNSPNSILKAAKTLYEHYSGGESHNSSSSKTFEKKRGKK

B1: GST-MAD1-MIM (domain or fragment, human, UniProt Q9Y6D9 485-584, looked up)
chain: SSAEQSFLFSREEADTLRLKVEELEGERSRLEEEKRMLEAQLERRALQGDYDQSRTKVLHMSLNPTSVARQRLREDHSQLQAECERLRGLLRAMERGGTV
B2: MAD2^LARQ (L13A/R133E/Q134A) (natural protein, UniProt Q13257 2-205, looked up)
chain: ALQLSREQGITARGSAEIVAEFFSFGINSILYQRGIYPSETFTRVQKYGLTLLVTTDLELIKYLNNVVEQLKDWLYKCSVQKLVVVISNIESGEVLERWQFDIECDKTAKDDSAPREKSQKAIQDEIRSVIEAITATVTFLPLLEVSCSFDLLIYTDKDLVVPEKWEESGPQFITNSEEVRLRSFTTTIHKVNSMVAYKIPVND
B3: GST-tagged MAD1-CTD globular subdomain (638-718 residues) (domain or fragment, human, UniProt Q9Y6D9 638-718, looked up)
chain: GYQIDITTENQYRLTSLYAEHPGDCLIFKATSPSGSKMQLLETEFSHTVGELIEVHLRRQDSIPAFLSSLTLELFSRQTVA
B4: GST-MAD1-NTD (domain or fragment, human, UniProt Q9Y6D9 1-485, looked up)
chain: MEDLGENTMVLSTLRSLNNFISQRVEGGSGLDISTSAPGSLQMQYQQSMQLEERAEQIRSKSHLIQVEREKMQMELSHKRARVELERAASTSARNYEREVDRNQELLTRIRQLQEREAGAEEKMQEQLERNRQCQQNLDAASKRLREKEDSLAQAGETINALKGRISELQWSVMDQEMRVKRLESEKQELQEQLDLQHKKCQEANQKIQELQASQEARADHEQQIKDLEQKLSLQEQDAAIVKNMKSELVRLPRLERELKQLREESAHLREMRETNGLLQEELEGLQRKLGRQEKMQETLVGLELENERLLAKLQSWERLDQTMGLSIRTPEDLSRFVVELQQRELALKDKNSAVTSSARGLEKARQQLQEELRQVSGQLLEERKKRETHEALARRLQKRVLLLTKERDGMRAILGSYDSELTPAEYSPQLTRRMREAEDMVQKVHSHSAEMEAQLSQALEELGGQKQRADMLEMELKMLKSQSS

Columns and labels:
Experiment in all cases: pull-down
untagged MAD2^L13A = untagged MAD2^L13A (UniProt Q13257 2-205, L13A)
[1] = target: 6×His-tagged wild type MAD2 (UniProt Q13257 2-205)
GST-MAD1-NTD = target: B4
His-tagged MPS1 = target: T1, His-tagged MPS1

Binder: B1
binding result (untagged MAD2^L13A): binds | binding result [1]: binds

Binder: B2
binding result (GST-MAD1-NTD): binds

Binder: B3
binding result (untagged MAD2^L13A): binds

Binder: B4
binding result (His-tagged MPS1): binds
